In the nanobody polyreactivity screen of Harvey et al. (2022):

Assay: yeast display, Sf9 membrane polyspecificity reagent, FACS + sequencing; frameworks hold sequencing errors
Method in brief: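 Galactose induction of a Saccharomyces cerevisiae BJ5465 synthetic nanobody display library ran 36–48 hours. The cells were then stained for 1 hour at 4 °C with 10% biotinylated, detergent-solubilized Sf9 membrane reagent, pulled down on streptavidin microbeads and FACS-sorted into low and high (top ~1%) gates on expression and reagent-binding fluorescence. Labels for polyreactivity follow the gate of origin.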

| Sequence | polyreactivity (PSR sort gate) |
| --- | --- |
| QVQLVESAAGLVQAVGSHRLSCAASRLTFGFYAMGSDRQARGKESELVAAIDFSDGSTYYADSVKGRFTISRDNAKKTVYLQMNSLKPEDTAVYYCAADDPGLGYWSLTWYDYWGQGTQVTVSS | high polyreactivity |
| QVQLVESAAVLVQAGGRLRLSCADSGRIFTDNGMGWYRQAPGKERELVAAISESGGSTYYADSVKGRFTISRDNAKNTVYLQMNSLKPEDTAVYYCAADLYWYGYHYDYWGQGTQVTVSS | low polyreactivity |
| QVQLVESAGALVQEGGSLRLICAASGFTFLKNAMGWYRQAPGKERELVDGISRSGGSTYYADSVKRRFTISRDKAKNPDYLQMNSQKPEDPAVYYCAAGTVQSYTWLPTRGDYWGQGSQVTVSS | high polyreactivity |
| QVQLVESAGCLVQAGGSLRLSCAASGRTFAVYAMGWSRPAPGKQREMVAAITLGASRSYYADSVKGRFTISRDNAKNTVYLQMNRLKPEDSAVYYWNDVGRLNVDSYLNDYWGKGTQVTVSS | low polyreactivity |
| QVQLVESAGCLVQAGGSLRLSCAASGSIISAYARGWYRQAPGKERQLVAAITRSGGSTYYADSVKGRFTISRDYAKITVYLQMNSLKPEDTAVYYCAARSYVHVFVRMYYWGQGTQVTVSS | high polyreactivity |
| QVQLVESAGGIVQAGGSLRLSCDASGSIFYYYAMGWYRQAPGKERELVADISYRGSRTFYADSVKGLFTISRDIAKNTVYLQMNSLKPEDTEVYYCAAAYSRYTSRFYYWGQGTQVTVSS | high polyreactivity |
| QVQLVESAGGLDQAGGSLRLICAASGGTFSFYAMGWYRHAPGKEREFVAAITASDGSTYADSVKGRFTISRDNAKNTVYLQMNSLKPEDTAVYYCAVAGGEFSSYGYWGQGTQVTVSS | low polyreactivity |
| QVQLVESAGGLDQAGGSLRLICDASGFISRNAMGWYTQAPGKERELVAAITRGGSTNYADSVKGRFTISRDNAKNTVYLQMNSLKPEDSAVYYCNQQRQGNSRSYYQTYYGMYYWGQGTQVTVSS | high polyreactivity |
| QVQLVESAGGLGQAGGSLRLSSAASGITTRTYAMGWYRQARGNERELVAAISDSGDRTYYADSVKGRFTISRDNAKNTVYLQMNSLKPEETAVYYCAVHAPGPRCEYWGQGTQVTVSS | low polyreactivity |
| QVQLVESAGGLVHARGSLRLSCAASGRIFERNAMGSYRQAPGKERELVARITSGGGTYYADSVKGRFTISRDNAKNTVYLQMNSLKPEDTAVYYCAVQYLYRKYRRYDYWGLGTQVTVSS | high polyreactivity |
| QVQLVESAGGLVPAGGSLRLSCAASGSIIITKAMGWYRQAPGKERELVAAISWTDDITYYADSVKGRFTISRDNAKNTVYLQMNSLKPEDTAVYYCAAEETSYAYDYWGQGTQVTVSS | low polyreactivity |
| QVQLVESAGGLVQAAASLRLSCADSGITFVVYTMGWYRQAPGKERELVASISISGDSTNYADSVKGRFTISRDNAKNTVYLQMNSLKPEDTAVYYCNAAFYHFQFPWIAYDYWGQGTQVTVSS | low polyreactivity |
| QVQLVESAGGLVQAGASLRLSCAASGYIFFGNAMGWYRQAPGKERELVAAIRWRGTSTYYADSVKGRFTISRDNAKNTVYLQMNSLKPEDSAVYYCAADVVRSNFYGTFLYDYDYWGQGTQVTVSS | low polyreactivity |
| QVQLVESAGGLVQAGGILRLSCAASGITIYRYAMGWYRQAPGKERELVADISSGGGTTYYADSVKGRFTISRYNAKNTVYLQMNSQKPEDTAVYYCAADYGFRYPLYDYWGQGTQVTVSS | low polyreactivity |
| QVQLVESAGGLVQAGGILRLSCAASGRTFEGNPMGWYRQAPGKERELVAAITSGGRTNYADSVKGRLTISRDNAKNTVYLQMNSLKPEDTAVYYCAATSTYRSYREYDYWGQGTQVTVSS | low polyreactivity |
| QVQLVESAGGLVQAGGRLRVSCAASGFTFTLYAMGWYRQEPGKERELVAAINRSGGRTYYADSVKGRFTISRDNAKNTVYLQKNSLKPEDTAVYYCNKYPWPNYYDGEYDYWGQGTQVTVSS | high polyreactivity |

| Sequence | polyreactivity (PSR sort gate) |
| --- | --- |
| QVQLVESAGGLVQAGGSLRIICAASGRIFSVNSMGGYRQAPGKERELDATIRTDGTTNYADSVKGRFTISRDNAKNTVYLQMNSLQPGDPAVYYCNARIPYSWRYGYWGQGTQVTVSS | high polyreactivity |
| QVQLVESAGGLVQAGGSLRISCAASGRTFFKYAMGWYSQAPGKERELVAAITGRGGSTYADSVKGRFTISRDNAKNTVYLQINSLKPEDTSVFYCAKVYQRGAQYYYYKYDYWGQGTQVTVSS | high polyreactivity |
| QVQLVESAGGLVQAGGSLRLICAASGGTFVGYAMGWYRQAPGKERELVAAISRRGGSTYYADSVKGRFTISRDNAKNTVYLQMNSLKPEDTAVYYCAKSEHRSVPQYDYWGQGTQVTVSS | high polyreactivity |
| QVQLVESAGGLVQAGGSLRLSCAASASIFYVYSMGWSRQAPGKEREFVAAISWRGGSTYYADSVKGRFTISRDNAKNTVYLQMISLKPEDTAVFYCNGRRLGYRSGHPGYYWGQGTQVTVSS | high polyreactivity |
| QVQLVESAGGLVQAGGSLRLSCAASGFTFGENALGWYRQAPGKERELVAAIRYSGGSTYYADSVKGRFTLSRDNAKNTVYLQLNSLKAEDTAVYYCNADTYALGAAVIPGDEYWGQGTQVTVSS | low polyreactivity |
| QVQLVESAGGLVQAGGSLRLSCAASGFTFTKYAMGWYRQAPRKESELVAAISSSGYSTYYADSVKGRFTISRDNAKNTVYLQMNSLKPEDSAVYYCAARGYYSSGVDYWGQGTQVTVSS | high polyreactivity |
| QVQLVESAGGLVQAGGSLRLSCAASGFTFTYYVMGWYRQAPGKERELVAAISSGGSTYYADSVKGRFTISRDNAKNTVYLQMNSLKPEDTAVYYCAKGSGYYYRYGYWGQGTQVTVSS | high polyreactivity |
| QVQLVESAGGLVQAGGSLRLSCAASGGIFGINAMGWYRQAPGKERELVAAINLSGGRTYYADSVKGRFTISRDNAKNTVYLQMNSLKPEDTAVYYCAAFYGYSLYGHYEYWGQGTQVTVSS | high polyreactivity |
| QVQLVESAGGLVQAGGSLRLSCAASGIIFDTNAMGCYRQAPGKERELVASISKRGGSTYYADSVKGRFTISRDNAKNTVYLQMNSLKPEDTAVYYCNALRRRQYHDDYWGQGTQVTVSS | high polyreactivity |
| QVQLVESAGGLVQAGGSLRLSCAASGIIFIYYTMGWYRQAPGKERELVAVITTSGDGTYYADSVKGRFTISRDNAKNTVYFQMNSLKPEDTAVYYCAASYSTWVSSRNDYWGQGTQVTVSS | low polyreactivity |
| QVQLVESAGGLVQAGGSLRLSCAASGIIFRYYAMGWYRQAPGKERELVARITSRGGTYYADSVKGRFTISRDNAKNNVYLQMNSLKPEDTAVYYCAASYLLTHGYAYNYWGQGTQVTVSS | high polyreactivity |
| QVQLVESAGGLVQAGGSLRLSCAASGIISRWYAMGWYRQAPGKERELVAAITRGGNTYYADSVKGRFTISRDNAKNTVYLQMNSLKPEDTAVYYCAARTPSRYLYFEYDYWGQGTQVTVSS | low polyreactivity |
| QVQLVESAGGLVQAGGSLRLSCAASGITLSYNAMGWYRQAPGKERELVAAISARGGSTYYADSVKGRFTISRDNAKNTVYLQMNSLKPEVTAVYYCAAPRGWRQNKYDYWGQGTEVTVSS | high polyreactivity |
| QVQLVESAGGLVQAGGSLRLSCAASGLILHINTMGWYRQAPGKERELVAAISWSGDSTYYADSVKGRFTISRDNAKNTVYLQMNSLKPDDTAVYYCTTDYGHTYLYGYDYWGQGTQVTVSS | high polyreactivity |
| QVQLVESAGGLVQAGGSLRLSCAASGLTFVPNAMGWYRQAPGKEREFVAAISNNGGRTYYADSVKGRFTISRDNAKNTVYLEMNSLKPEDTAVYYCAKFLSPGERHSYDYWGQGTQVTVSS | high polyreactivity |
